Here are results for two substances from US20060105320A1.

The target of test [1] is NM (N-terminal and middle region of Sup35p), soluble / unpolymerized (Saccharomyces cerevisiae) (UniProt P05453). Briefly: cell-based or functional assay.
The target in test [2] is biotinylated NM^K184C seed (Saccharomyces cerevisiae) (UniProt P05453). Description: capture of biotinylated seed on Streptavidin-coated Dynabeads, SDS wash, scintillation counting.
Chain of biotinylated NM^K184C seed (Saccharomyces cerevisiae) (P05453 1-253 K184C): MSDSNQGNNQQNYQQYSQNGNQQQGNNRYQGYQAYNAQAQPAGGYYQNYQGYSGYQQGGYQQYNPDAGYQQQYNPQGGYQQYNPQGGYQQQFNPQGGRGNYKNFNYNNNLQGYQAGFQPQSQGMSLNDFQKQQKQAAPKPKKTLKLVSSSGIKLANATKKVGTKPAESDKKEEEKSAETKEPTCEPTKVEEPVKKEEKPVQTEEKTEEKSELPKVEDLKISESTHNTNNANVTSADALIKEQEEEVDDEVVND

Chain of NM (N-terminal and middle region of Sup35p), soluble / unpolymerized (Saccharomyces cerevisiae) (P05453 1-253): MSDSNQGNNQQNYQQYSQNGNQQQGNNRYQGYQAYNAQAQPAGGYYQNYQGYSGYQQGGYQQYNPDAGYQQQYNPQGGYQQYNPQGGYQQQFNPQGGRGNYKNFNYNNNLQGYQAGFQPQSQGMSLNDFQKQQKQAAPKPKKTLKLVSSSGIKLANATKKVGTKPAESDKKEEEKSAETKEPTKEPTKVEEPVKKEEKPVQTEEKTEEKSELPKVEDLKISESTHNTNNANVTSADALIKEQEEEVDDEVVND

Regarding “Hsp104 (from UniProt P31539 1-908) (enzyme)”, in test [1], the IC50 of inhibition of NM fibrillization, no nucleotide amounted to 7.6 µM; the IC50 of inhibition of NM fibrillization, with ADP came to 3.1 µM; the IC50 of inhibition of NM fibrillization, with AMP-PNP turned out to be 0.2 µM; the IC50 of inhibition of NM fibrillization, with ATP hydrolysis is 0.1 µM.

As for “NM^T158C-iodo[1-^14C]acetamide (soluble) (from UniProt P05453 1-253)”, in test [2], the fraction of seed-bound NM soluble in SDS is 50%.
